Assay results: patent US12576129B2, “Anthelmintic compositions and methods” (priority 2016, dated 2026)

What was measured:
[1] = tested on: Heligmosomoides polygyrus; assay: Heligmosomoides polygyrus infection in STAT6-/- mice; format: in vivo; details: immunosuppressed mice lacking STAT6
Excerpt: Such a result is not surprising given that Cry5B directly intoxicates STH parasites in vitro. This is not true of all anthelmintics, e.g., DEC and in some cases ivermectin, for which it appears that involvement of the immune system is important for their mechanism of action. To confirm that the immune system is not essential for Cry5B action, STAT6−/− mice were infected with Heligmosomoides polygyrus STH parasites. STAT6 is required for the TH2 response required for normal expulsion of STH parasites.

[2] = tested on: Ancylostoma ceylanicum hookworms; assay: A. ceylanicum hookworm curative experiment in Syrian hamsters (worm burdens, fecal egg counts); format: in vivo
Description: Studies of Ancylostoma ceylanicum hookworms in Syrian hamsters were carried out as previously described (Hu, Y., et al. PLoS One, 8, e70702, 2013; Hu, Y., et al. Appl Environ Microbiol, 79, 5527-5532, 2013). Briefly, 4-6 week old male hamsters were infected with 150 infectious third staged larvae per os. On day 17 post-infection, an overnight collection of stool is taken and fecal egg counts (FECs) taken the next day. The hamsters are assigned to groups based on FEC so that there is roughly the same level of infection (same average egg per gram of feces or EPG) in all groups. On day 18 post-infection, the hamsters are weighed for dosing purposes and then gavaged with treatments as described in each experiment. On day 21 post-infection, another overnight collection of stool is taken for FECs. On day 22 post-infection, the animals were euthanized. Total hookworms in the small intestine were counted and EPGs calculated.
For all experiments involving cimetidine, hamsters or mice were pre-gavaged with 200 μL of an 8.75% cimetidine solution 15 minutes prior to therapeutic treatment (Stepek, G., et al. Parasitology, 134, 103-112, 2007).
For in vivo curative experiments, male hamsters were infected per os with 150 A. ceylanicum infectious larvae. On day 17 postinoculation (p.i.), a fecal sample was collected from each hamster, and the number of eggs was counted using the modified McMaster technique (13). On the basis of these fecal egg counts, the hamsters were segregated to ensure that the groups (control and treatment) had roughly equivalent infection levels. […] The hamsters were sacrificed on day 22 p.i., and intestinal parasite burdens were determined as described previously (14). The one-tailed Mann-Whitney test was performed to compare the two groups for significance in the experiment using a dose of 10 mg/kg of body weight (data were calculated and plotted using Prism 5 [GraphPad Software Inc., La Jolla, CA]). […]

[3] = tested on: Ancylostoma ceylanicum hookworms; details: hamsters; purified protein at 10 mg/kg; previously published data (ref 14); cited from earlier work
[4] = tested on: Ancylostoma caninum; assay: Ancylostoma caninum hookworm infection in dogs (fecal egg count, capsule endoscopy); format: in vivo
Description: Two beagles were inoculated per os with 1000 Ancylostoma caninum larvae. Forty one days post-infection, stool was collected for determination of fecal egg loads and the dog intestines were imaged using capsule endoscopy to count hookworms (Lee, A., et al. Int. J. Parasitol. 41, 1377-1383, 2011). One dose of Cry5B SCL (˜40 mg/kg) was given by gavage on each of day 42 and 44 post-infection. On day 49 post-infection a final fecal egg count was taken and capsule endoscopy repeated for final hookworm counts.

[5] = Average of dogs (n = 2), 40 mg/kg
[6] = dogs (n = 2), post- vs pre-treatment, 40 mg/kg

B1: Cry5B: Bacillus thuringiensis crystal (Cry) protein Cry5B, SEQ ID NO:1; purified full-length protein (protein, listed as Bacillus thuringiensis)
chain: MATINELYPVPYNVLAHPIKEVDDPYSWSNLLKGIQEGWEEWGKTGQKKLFEDHLTIAWNLYKTGKLDYFALTKASISLIGFIPGAEAAVPFINMFVDFVWPKLFGANTEGKDQQLFNAIMDAVNKMVDNKFLSYNLSTLNKTIEGLQGNLGLFQNAIQVAICQGSTPERVNFDQNCTPCNPNQPCKDDLDRVASRFDTANSQFTQHLPEFKNPWSDENSTQEFKRTSVELTLPMYTTVATLHLLLYEGYIEFMTKWNFHNEQYLNNLKVELQQLIHSYSETVRTSFLQFLPTLNNRSKSSVNAYNRYVRNMTVNCLDIAATWPTFDTHNYHQGGKLDLTRIILSDTAGPIEEYTTGDKTSGPEHSNITPNNILDTPSPTYQHSFVSVDSIVYSRKELQQLDIATYSTNNSNNCHPYGLRLSYTDGSRYDYGDNQPDFTTSNNNYCHNSYTAPITLVNARHLYNAKGSLQNVESLVVSTVNGGSGSCICDAWINYLRPPQTSKNESRPDQKINVLYPITETVNKGTGGNLGVISAYVPMELVPENVIGDVNADTKLPLTQLKGFPFEKYGSEYNNRGISLVREWINGNNAVKLSNSQSVGIQITNQTKQKYEIRCRYASKGDNNVYFNVDLSENPFRNSISFGSTESSVVGVQGENGKYILKSITTVEIPAGSFYVHITNQGSSDLFLDRIEFVPKIQFQFCDNNNLHCDCNNPVDTDCTFCCVCTSLTDCDCNNPRGLDCTLCCQVENQLPSFVTLTDLQNITTQVNALVASSEHDTLATDVSDYEIEEVVLKVDALSGEVFGKEKKALRKLVNHTKRLSKARNLLIGGNFDNLDAWYRGRNVVNVSDHELFKSDHVLLPPPTLYSSYMFQKVEESKLKANTRYTVSGFIAHAEDLEIVVSRYGQEVKKVVQVPYGEAFPLTSRGAICCPPRSTSNGKPADPHFFSYSIDVGTLDVEANPGIELGLRIVERTGMARVSNLEIREDRPLKKNELRNVQRAARNWRTAYDQERAEVTALIQPVLNQINALYENEDWNGAIRSGVSYHDLEAIVLPTLPKLNHWFMSDMLGEQGSILAQFQEALDRAYTQLEESTILHNGHFTTDAANWTIEGDAHHAILEDGRRVLRLPDWSSSVSQTIEIENFDPDKEYQLVFHAQGEGTVSLQHGEEGEYVETHPHKSANFTTSHRQGVTFETNKVTVEITSEDGEFLVDHIALVEAPLPTDDQSSDGNTTSNTNSNTSMNNNQ
modifications: source = /note="Bacillus thuringiensis pesticidal crystal (Cry)"
For B1, the “efficacy against H. polygyrus” value [1] was “effective”, the “% Parasite reduction” value ([2]; A. ceylanicum infections in hamsters, 10 mg/kg, This Example) was 93% and the “efficacy after pre-exposure to two doses of Cry5B prior to infection” value ([2]; hamsters) was “not altered”. For the same molecule, the “effect of pre-neutralization of stomach acid on efficacy” value ([2]; hamsters pre-gavaged with cimetidine (and NaHCO3) before treatment) was “improved”, the hookworm burden reduction [3] was 65% and the “Fecal Egg Count Pre-Treatment” value ([4]; Average of dogs (n = 2)) was 12581 EPG of Feces. The “Hookworm Burden Pre-Treatment” value ([4]; Average of dogs (n = 2)) was 70, the “Fecal Egg Count Post-Treatment” value [4, 5] was 1081.5 EPG of Feces and the “Hookworm Burden Post-Treatment” value [4, 5] was 3.5. For the same molecule, the “Hookworm Burden Pre-Treatment” value ([4]; Dog 1, capsule endoscopy, day 41 post-infection) was 84, the “Hookworm Burden Post-Treatment” value ([4]; Dog 1, capsule endoscopy, day 49, ~40 mg/kg on days 42 and 44) was 4 and the “Fecal Egg Count Pre-Treatment” value ([4]; Dog 1, day 41 post-infection) was 15750 EPG of Feces. For the same molecule, the “Fecal Egg Count Post-Treatment” value ([4]; Dog 1, day 49 post-infection, ~40 mg/kg by gavage on days 42 and 44) was 1590 EPG of Feces, the “Hookworm Burden Pre-Treatment” value ([4]; Dog 2, capsule endoscopy, day 41 post-infection) was 56 and the “Hookworm Burden Post-Treatment” value ([4]; Dog 2, capsule endoscopy, day 49, ~40 mg/kg on days 42 and 44) was 3. The “Fecal Egg Count Pre-Treatment” value ([4]; Dog 2, day 41 post-infection) was 9412 EPG of Feces, the “Fecal Egg Count Post-Treatment” value ([4]; Dog 2, day 49 post-infection, ~40 mg/kg by gavage on days 42 and 44) was 573 EPG of Feces and the “% Reduction of Fecal Egg Count” value [4, 6] was 91.4%. For the same molecule, the “% Reduction of Hookworm Burden” value [4, 6] was 95% and the “efficacy against A. caninum in dogs” value ([4]; ~40 mg/kg by gavage on days 42 and 44 post-infection) was “highly effective”.
